# In the nanobody polyreactivity screen of Harvey et al. (2022):
# Test: yeast display, Sf9 membrane polyspecificity reagent, FACS + sequencing; frameworks hold sequencing errors
# Method in brief: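 Nanobodies came from a synthetic yeast display library in Saccharomyces cerevisiae BJ5465, induced with galactose for 36–48 hours and stained for 1 hour at 4 °C with 10% biotinylated, detergent-solubilized Sf9 membrane reagent. Cells were enriched on streptavidin microbeads and then FACS-sorted, with low and high (top ~1%) gates set on anti-HA fluorescence for expression and streptavidin fluorescence for reagent binding. Each polyreactivity label reflects the gate a clone came from. Genes were amplified by colony PCR, sequenced by MiSeq 2 × 250 and filtered by CDR length.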
row,Sequence,polyreactivity (PSR sort gate)
1,QVQLVESGGGLVQAGGSLRLICAASGFTLRHYAMGWSRQAPGKERELVAAITKSGSSTYYADSVKGRFTISRDNAKNTVYLQMNSLKPEDTAVYYCAKKTSYSYAFRYDYWGQGTQVTVSS,high polyreactivity
2,QVQLVESGGGLVQAGGSLRLICAASGGIFPTYDMVWYRQAPGKERELVAAIDRNGTSTTYSDSVKGRFTISRDNAKNTVYLQMNSLKPEDTEVYYCAAGYNDQTSAYDYWGHGTQVTVSS,low polyreactivity
3,QVQLVESGGGLVQAGGSLRLICAASGGIFWYYAMGWYRQAPGKERELVATISSGGSTKYADSVKGRFTISRDNAKNTVYLQMNSLKPEDTAVYYCNKVFPNLYIYVVRGLIEMDYWGQGTQVTVSS,low polyreactivity
4,QVQLVESGGGLVQAGGSLRLICAASGGIIYWNAMGWYRQAPGKERELVATITRSGGSTYYADSVKGRFTISRDNAKNTVYLQMNSLKPEDTAVYYCAARSYYRFDYWGQGTQVTVSS,high polyreactivity
5,QVQLVESGGGLVQAGGSLRLICAASGGPFGYYTMGWYRQAPGKERELVAAISSGGGTDYADSVKGRFTISRDNAKNTVYLQMNSLKPEDTAVYYCNAKWLEWHYVFLPSYTMDYWGQGTQVTVSS,low polyreactivity
6,QVQLVESGGGLVQAGGSLRLICAASGGTFGRNAMGWYRQAPGKERELVATITRRGGSTYYADSVKGRFTISRDNAKNTVYLQMNSLKPEDTAVYYCNALVTTTPRYDYWGQGTQVTVSS,high polyreactivity
7,QVQLVESGGGLVQAGGSLRLICAASGGTFNAYAMGWYRQAPGKERELVATISYSGGSTYYADSEKGRFTISRDNAKNTVYLQMNSLKPEDTAVYYCATDVYDSTPFRFDYWGQGTQVTVSS,low polyreactivity
8,QVQLVESGGGLVQAGGSLRLICAASGIIFHFNDMGWYRQAPGKERELVAAIDSTGSTNYADSVKGRFTISRDNAKNTVYLQMNSLKPEDTAVYYCAVLNHRVDSVLTRYYYWGQGTQVTVSS,low polyreactivity
9,QVQLVESGGGLVQAGGSLRLICAASGIIFRWYTMGWYRQAPGKERELVAAISTSTGSTYYADSVKGRFTISRDNAKNTVYLQMNSLKPEDTAVYYCAADYAYWNYESYYWGQGTQVTVSS,high polyreactivity
10,QVQLVESGGGLVQAGGSLRLICAASGITFARNTRGWYRQAPGKERELVAAIDSGGNTYADSVKGRFTISRDNAKNTVYLQMNSLKPEDTAVYYCAVDGGEFSSYGYWGQGTQVTVSS,low polyreactivity
11,QVQLVESGGGLVQAGGSLRLICAASGITFGCNAMGWYRQAPGKEREFVAAITFSDGSTRYADSVKGRFTISRDNAKNTVYLQMNSLKPEDTAVYYCAADTWSDKYDYWGQGTQVTVSS,low polyreactivity
12,QVQLVESGGGLVQAGGSLRLICAASGITFWYYAMGWSRQEPGKERELVAAITRRGRTNYADSVKGRFTISRDNAKNTVYLQMNSLKPEVTAVYYCAVDLYSFSPRYYYWGQGTQVSVSS,low polyreactivity
13,QVQLVESGGGLVQAGGSLRLICAASGITFYYYAMGWYRQAPGKERELVAAISTRSGSTYYADSVKGRFTISRDNAKNTVYLEMNSLKPEDTAVYYCAARYRSAGHRYDYWGQGTQVTVSS,high polyreactivity
14,QVQLVESGGGLVQAGGSLRLICAASGITIKRSAMGWYRQPPGKEREFVATISQSGTSTYYADSVKGLFTISRDNAKNTVYLQMNSLKPEDTAVYYCAADYIGYWYGYYSWGHGTQVTVSS,low polyreactivity
15,QVQLVESGGGLVQAGGSLRLICAASGITLYRYAMGWYRQAPGKERELVADISSGGGTTYYADSVKGRFTISRDNAKNTVYLQMNSLKPEDTAVYYCAADYGFRYPLYDYWGQGTQVTVSS,low polyreactivity
16,QVQLVESGGGLVQAGGSLRLICAASGLIFVRNVMGWYRQAPGKERELVAAINLSTGSTYYADSVKGRFTISRDNAKNTVYLQMNCLKPEDTAVYYCAAEYLYWDDLQDYEYWGQGTQVTVSS,low polyreactivity
17,QVQLVESGGGLVQAGGSLRLICAASGLIFVSYAMGWSRQAPGKERELVAAITYGGDSTFYADSVKGRFTISRDNAKNTVYLQMNSLKPEDTAVYYCNADIWFIWHSFGWGYDYWGQGTQVTVSS,low polyreactivity
18,QVQLVESGGGLVQAGGSLRLICAASGLTFDVNAMGWYRQAPGKERELVAAITADDGSTYYADSVKGRFTISRDNAKNTVYLQMNSLKPEDTAVYYCNADTRTQGPYSAPYYREMNYWGQGTQVTVSS,low polyreactivity
19,QVQLVESGGGLVQAGGSLRLICAASGLTFDYYDMGWYRQAPGKERELVASITWRGSSTYYADSVKGRFTISRDNAKNTVYLQMISLKPEDTAVYYCAARYRWSEWRPYYYWGQGTQVTVSS,high polyreactivity
20,QVQLVESGGGLVQAGGSLRLICAASGLTFYRYAMGWYRQGPGKERELVAGITRRGGSTYYADSVKGRFTISRDKPKNTVYLPMNSLKPEDTAVYYCNVDGISSSYPEMDYWGQGTQVTVSS,low polyreactivity
21,QVQLVESGGGLVQAGGSLRLICAASGNIFTTYAMGWYRQAPGKERELVAAISRTGGRTSYADSVKGRFTISRDNAKNTVYLQMNSLKPEDTAVYYCAAVPTVRPSAPRARILSDYWGQGTQVTVSS,high polyreactivity

row,Sequence,polyreactivity (PSR sort gate)
1,QVQLVESGGGLVQAGGSLRLICAASGNIFVPSAMGWYRQAPGKERELVAAINGGGSTNYADSVKGRFTISRDNAKNTVYIQMISLKPEDTAVNYCAAVWYFLSLWYDYWGQGTQVTVSS,high polyreactivity
2,QVQLVESGGGLVQAGGSLRLICAASGNTFNFYAMGSYRQAPGKERELVAGISGSNTYYADSVKGRFTISRDNAKNTVYLQMNSLKPEDTAVYYCAKRAIWRYGYWGQGTQVTVSS,high polyreactivity
3,QVQLVESGGGLVQAGGSLRLICAASGNTFVDYAMGWYRQAPGKELELVAAISRSGGSTYADSVKGRFTISRDNAKNTVYLQMNSLKPEDTAVYYCAAYSGVGYLWFDYWGQGTQVTVSS,low polyreactivity
4,QVQLVESGGGLVQAGGSLRLICAASGRIFGDNGMGWYTQAPGKERELVTYADSVKGRFTISRDNAKNTVYLQMNSLKPEDTAVYYCNKVPPRFSGLDENYWGQGTQVTVSS,low polyreactivity
5,QVQLVESGGGLVQAGGSLRLICAASGRIFKLYAMGWYRQAPGKERELVASINSGGGSTNYADSVKGRFTISRDNAKNTVYLQMNSLKPEDPAVYYCAKCYRRVYGPFFYWGQGTQVTVSS,low polyreactivity
6,QVQLVESGGGLVQAGGSLRLICAASGRIFRYNAMGWYRQAPGKERELVAAISSVGSTNYADSVKGRFTISRDNAKNTVYLQMNSLKPEDTAVYYCNAVVRSYVKTYRYYKVDYWGQGTQVTVSS,high polyreactivity
7,QVQLVESGGGLVQAGGSLRLICAASGRIFSLYAMGWYRQAPGKERELVAAITWSSGSTYYADSVKGRFTISRDNAKNTVYLQMNSLKPEDTAVYYCNAVWRTRDYDYWGQGTQVTVSS,low polyreactivity
8,QVQLVESGGGLVQAGGSLRLICAASGRIFYDNALGWYRQAPGKERELVAAISESGTSTYYADSVKGRFTISRDNAKNTVYLQMNSLKPEDTAVYYCAAYFTWNRKVFYYWGQGTQVTVSS,high polyreactivity
9,QVQLVESGGGLVQAGGSLRLICAASGRIWVNAMGWYIQAPGKQREFVAAISTSSASTYYADSVKGRFTISRDNAKNTVYLQMNSLKPEDTAVYYCAARYLGKKYYYWGQGTQVTVSS,high polyreactivity
10,QVQLVESGGGLVQAGGSLRLICAASGRPFTYNMGWYRQAPGKERELVAANDLRRLCEGALHNFTRQCEEYRLFTDVQPETGRYPVYYCNADPAWIWYTFDYWGQGTQVTVSS,low polyreactivity
11,QVQLVESGGGLVQAGGSLRLICAASGRTCRTYTMGLYRQATGKEREFVAAITSSGASTYYADSVKGRFTISRDKAKNTVYLQMNSLKPEDTAVYYCAARPRPRSANGMYYWGQVTQVTVSS,high polyreactivity
12,QVQLVESGGGLVQAGGSLRLICAASGRTFAYYAMGWYRQAPGKERELVAAISSAGRTYYADSVKGRFTISRDNAKNTVYLHMNSLKPEDTSDYYCAVRWLTQFNGRYGSWGQGTQVTVSS,high polyreactivity
13,QVQLVESGGGLVQAGGSLRLICAASGRTFGYYTMGWYRPAPGKERELVARINYIGSSTYYADSVKGRFTISRDNAKNTVYLQMNSLKPEDTAVYYCNADNARGRSGVRRYYWGQGTQVTVSS,high polyreactivity
14,QVQLVESGGGLVQAGGSLRLICAASGRTFPYNAMGWYRQAPGKERELVAAISSGTRTDYADSVKGRFTISRDNAKNTVYLQMNSLKPEDTAVYYCAADYYHYLWRAYGFDYWGQGTQVTVSS,high polyreactivity
15,QVQLVESGGGLVQAGGSLRLICAASGRTFRYYAMGWYRQAPGKERELVAAISASGGSTFYADSVKGRFTISRDNAKNTVYLQMNSLKPEDTAVYYCAAYHYSVFPYKQYDYWGQGTQVTVSS,high polyreactivity
16,QVQLVESGGGLVQAGGSLRLICAASGRTFRYYAMGWYRQAPGKERELVASISDGGSTNYADSVKGRFTISRDNAKNTVYLQMNSLKPEDTAVYYCNAKAYVWYLYDEFGYWGQGTQVTVSS,low polyreactivity
17,QVQLVESGGGLVQAGGSLRLICAASGRTFRYYTMGWYRQAPGKERELVAAISWRGGSTYYADSVKGRFTISRDNAKNTVYLQMNSLKPEDTAVYYCAAKRPKRYNEGYYWGQGTQVTVSS,high polyreactivity
18,QVQLVESGGGLVQAGGSLRLICAASGRTFTHNAMGWSRQAPGKERELVAGITSGCSTNYADSVKGRFTISRDNAKNTVYLQMNSLKPEDTAVYYCNKVFFWSRYKGYYYWGQGTQVTVSS,high polyreactivity
19,QVQLVESGGGLVQAGGSLRLICAASGRTFTYYDMGWYRQAPGKERELVAGITARGGSTYADSVKGRFTISRDNAKNTVYLQMNSLKPEDTAVYYCAADLYTSLDSTYDYWGQGTQVTVSS,low polyreactivity
20,QVQLVESGGGLVQAGGSLRLICAASGRTFVKNAMGWSRQAPGKERELVAAIDRGSRTNYADSVKGRFTISRDNAKNTVYLQMNSLKPEDTAVYYCATRYRVRDDQTGTWSIFGYWGQGTQVTVSS,high polyreactivity
